Measurements from PMC2553580 (Nucleic Acids Research, 2008).

Biological target: the molecule itself
Assay: native gel or EMSA

B1: long isoform of Sox5 (natural protein)
chain: not shown
  stoichiometry N: 2
